Source: patent US20220048999A1 (Genmab, published 2022)
Positions count from the first letter of the chain named. Numbers in names are those of the source.

Key:
[1] = target: T1, human B7H4, full length, on cells (human, UniProt Q7Z7D3 25-282); test: flow cytometry, HEK-293F cells transfected with human B7H4 (panel Human B7H4), about 0.0004-30 µg/ml, MFI PE
T1 construct: On transiently transfected HEK cells or on B7H4-expressing human tumor cell lines; also called VTCN1
T1 sequence: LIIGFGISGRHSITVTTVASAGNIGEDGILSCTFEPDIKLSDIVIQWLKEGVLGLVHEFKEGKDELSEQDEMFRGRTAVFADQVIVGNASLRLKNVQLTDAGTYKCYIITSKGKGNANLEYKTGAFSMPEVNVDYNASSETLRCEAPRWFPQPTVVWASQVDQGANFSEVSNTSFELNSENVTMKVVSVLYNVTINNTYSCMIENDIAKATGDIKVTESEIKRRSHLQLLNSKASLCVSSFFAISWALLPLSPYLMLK
Description: (§1) Cells (3×10⁴ cells/well) were incubated in polystyrene 96-well round-bottom plates (Greiner bio-one, cat. no. 650180) with serial dilutions of antibodies (ranging from 0.000458 to 30 μg/mL in 4-fold dilution steps) in 100 μL PBS/0.1% BSA/0.02% azide (staining buffer) at 4° C. for 30 min. Experiments were performed in technical duplicate. After washing twice in staining buffer, cells were incubated in 50 μL secondary antibody at 4° C. for 30 min. As a secondary antibody, R-Phycoerythrin (PE)-conjugated goat-anti-human IgG F(ab′)₂ (1:500 in FACS buffer; Jackson ImmunoResearch Laboratories, Inc., West Grove, Pa., cat. no. 109-116-098), was used. Cells were washed twice in staining buffer, re-suspended in 30 μL FACS buffer containing Topro-3 (1:10,000 dilution) and analyzed on an iQue Screener (Intellicyt Corporation, USA). Binding curves were analyzed using non-linear regression (sigmoidal dose-response with variable slope) using Graph Pad Prism V7.02 software (GraphPad Software, San Diego, Calif., USA).

[2] = target: T2, cynomolgus monkey (Macaca fascicularis) B7H4 transcript 1, full length, on HEK-293F cells (cynomolgus monkey, UniProt Q7Z7D3 25-282 (human entry)); test: flow cytometry, HEK-293F cells transfected with cynomolgus monkey B7H4 (panel Cynomolgus monkey B7H4), about 0.0004-30 µg/ml, MFI PE
T2 construct: also called cynomolgus B7H4
T2 chain: T1 sequence with L53I, F242L, S252A
Description: as §1

[3] = target: T3, mouse (Mus musculus) B7H4, full length, on HEK-293F cells (mouse, UniProt Q7TSP5 25-257); test: flow cytometry, HEK-293F cells transiently transfected with mouse B7H4 (panel Mouse B7H4), 0.000458-30 µg/ml, PE-anti-human IgG, MFI PE
T3 sequence: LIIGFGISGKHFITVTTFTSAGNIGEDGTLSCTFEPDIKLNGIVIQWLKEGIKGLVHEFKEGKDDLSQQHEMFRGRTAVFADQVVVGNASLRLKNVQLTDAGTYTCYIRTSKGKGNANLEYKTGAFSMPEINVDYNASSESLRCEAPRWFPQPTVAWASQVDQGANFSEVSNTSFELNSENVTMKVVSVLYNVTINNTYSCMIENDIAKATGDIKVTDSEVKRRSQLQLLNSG
Description: as §1

B1: IgG1-B7H4-C1-N52S-FEAR (antibody, V domains shown)
VH: QVQLQQWGAGLLKPSETLSLTCAVYGGSFSGYYWSWIRQPPGKGLEWIGEISHSGSTNYNPSLKSRVTISIDTSKNQFSLKLTSVTAADTAVFYCARGLFNWNFDSWGQGTLVTVSS
VL: DIQMTQSPSSLSASVGDRVTITCRASQGIRNDLGWYQQKPGKAPKRLIYGASSLQSGVPSRFSGSGSGTEFTLTISSLQPEDFATYYCLQHNSYPRTFGQGTTVEIKR
notes: Full-length human IgG1 with L234F, L235E, D265A, K409R (FEAR), kappa light chain; also called IgG1-B7H4-C1-052S-FEAR; IgG1-B7H4-C1-N525-FEAR
- EC50 (read off the curve) [1]: ~0.04 µg/mL
- EC50 (read off the curve) [2]: ~0.1 µg/mL
- EC50 (read off the curve) [3]: ~0.4 µg/mL
